Assay [1] has as its target T1, human PD-L1 expressed on cells (human, UniProt Q9NZQ7 19-290).
T1 construct: whole, on cells; One entry covers all human PD-L1-bearing cells; also called huPD-L1 on CHO cells (CHO-hPD-L1); PD-L1 on A431 cells
Description: flow cytometry on unstimulated A431 cells, ratio of EC50 values. The protocol: (§1) Approximately 2.5×10⁵ A431 squamous cell carcinoma cells were plated in a final volume of 50 μL FACS buffer (phosphate buffered saline, 1% fetal bovine serum, 5 mM EDTA) in 96-well plates. 50 μL 2× Zombie Violet (BioLegend) were added to each well, and the plates were incubated 20-30 minutes at room temperature, protected from light. After incubation, 150 μL FACS buffer were added to each well. The plates were centrifuged at 500×g for 5 minutes. The supernatant was removed, and the cell pellet were resuspended in 200 μL FACS buffer. The wash procedure was repeated for a total of 2-3 washes. […] After the cells were incubated with the primary anti-PD-L1 antibody 1 hour on ice, protected from light, 150 μL FACS buffer were added to each well. The plates were then centrifuged, the supernatant was removed, and the cells were resuspended in 250 μL FACS buffer three times. After the third wash, the cells were resuspended in 100 μL goat anti-human IgG-Alexa Fluor 488 secondary antibody, and incubated for 30 minutes on ice, protected from light. After 3 washes as previously described, the cells were resuspended in 200 μL FACS buffer. The cells were then analyzed using a CytoFLEX flow cytometer.
A general note: Flow cytometry measures light scatter and fluorescence of single cells or particles in a stream.

The target in assay [2] is T2, 6xHis-tagged cyPD-L1 (cynomolgus monkey, UniProt Q9NZQ7 19-238 (human entry)).
T2 construct: The assay text says only '6xHis-tagged cyPD-L1'; also called cynomolgus PD-L1; not shown: 6xHis tag
Description: ELISA, plate-coated 6xHis cyPD-L1, OD 450 nm. The protocol: Hybridoma supernatants were tested for binding to huPD-L1, cyPD-L1, and muPD-L1 by ELISA. Briefly, 30 μL 6xHis-tagged huPD-L1, cyPD-L1, or muPD-L1 (1 μg/mL in PBS) were immobilized in wells of a 96-well assay plate overnight at 4° C. After washing and blocking steps, 30 μL of antibody supernatant were added to the plate and incubated at room temperature for 1 hr. Bound human antibody was detected using horseradish peroxidase (HRP)-conjugated goat anti-human Fc (Invitrogen Cat. No. 109-035-097; diluted 1:5000) or goat anti-mouse Fc HRP (Invitrogen Cat. No. 115-035-071) as a control. Bound antibody was detected with 1-Step Ultra™ TMB-ELISA Substrate (ThermoFisher Scientific Cat. No. 34029). When the reaction was complete the reaction was stopped, and the plate was read at 450 nm.
Anti-PD-L1 antibodies, described in Example 1A and manufactured substantially as described in Example 1B, were tested for to huPD-L1 and cyPD-L1 by ELISA substantially as described in Example 1A, using 12 dilutions of antibody ranging from 1 ng/ml to 3 mg/mL.

The target in assay [3] is T1, human PD-L1 expressed on cells. Description: flow cytometry on unstimulated A431 cells (MFI against antibody concentration). The method, then:
as §1

T1 sequence (Q9NZQ7 19-290): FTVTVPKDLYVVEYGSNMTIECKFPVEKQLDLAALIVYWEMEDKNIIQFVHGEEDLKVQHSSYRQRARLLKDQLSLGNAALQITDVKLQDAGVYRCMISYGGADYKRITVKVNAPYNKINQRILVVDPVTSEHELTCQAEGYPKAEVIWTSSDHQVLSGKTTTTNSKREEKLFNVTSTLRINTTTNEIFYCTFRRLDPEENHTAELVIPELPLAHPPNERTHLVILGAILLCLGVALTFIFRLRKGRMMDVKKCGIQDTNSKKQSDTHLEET
T2 sequence (Q9NZQ7 other isoform, or with tags, fused parts or gaps): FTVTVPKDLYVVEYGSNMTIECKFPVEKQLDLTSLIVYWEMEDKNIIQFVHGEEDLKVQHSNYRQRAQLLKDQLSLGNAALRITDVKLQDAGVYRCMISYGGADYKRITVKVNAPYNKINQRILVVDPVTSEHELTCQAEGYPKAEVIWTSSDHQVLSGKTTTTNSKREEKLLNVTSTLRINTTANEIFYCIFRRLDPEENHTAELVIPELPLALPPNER

B1: 1P9 (antibody, V domains shown)
VH: EVQLVESGGGLVQPGGSLRLSCAASGFTFSTYWMSWVRQAPGKGLEWVANIKQDGGERYYVDSVKGRFTISRDNAKSSLYLQMNSLRAEDTALYYCARLRLYSDYEDYWGQGTLVTVSS
VL: DIQMTQSPSSVSASVGDRVTITCRASQGISSWLAWYQQKPGKAPKLLIYSVSSLQSGVPSRFSGSGSGTDFTLTISSLQPEDSATYYCQQANSLPPTFGGGTKVEIK
notes: Recombinant full-length human antibody expressed in CHO K1 GS KO cells, with wild-type human Fc; also called anti-PD-L1 antibody 1P9; Unconj; 1P9
With B1, in assay [1], the “fold potency against avelumab” value came to 3.5 fold. Moreover, the concentration giving a half-maximal response (EC50) in assay [2] was determined as 0.0338 µg/mL; in assay [3], 0.0159 µg/mL.

Usually EC50 stands for the concentration that produces a half-maximal response. A high value points to weaker potency.

The values are drawn from patent publication US20250145716A1 (RAKUTEN MEDICAL, published 2025).
